Measurements published in the supplement of paper PMC7877785.
± gives the uncertainty stated by the source.

Experiment: self-splicing fitness, log relative to wild type (ln ratio); higher = more splicing; Tetrahymena group I intron in knt gene, E. coli kanamycin selection, DiMSum; sequences stand for … in CUCUCU…GGAGGGAAAAGUUAUCAGGCAUGCACCUGGUAGCUAGUCUUUAAACCAAUAGAUUGCAUCGGUUUAAAAGGCAAGACCGUCAAAUUGCGGGAAAGGGGUCAACAGCCGUUCAGUACCAAGUCUCAGGGGAAACUUUGAGAUGGCCUUGCAAAGGGUAUGGUAAUAAGCUGACGGACAUGGUCCUAACCACGCAGCCAAGUCCUAAGUCAACAGAUCUUCUGUUGAUAUGGAUGCAGUUCACAGACUAAAUGUCGGUCGGGGAAGAUGUAUUCUUCUCAUAAGAUAUAGUCGGACCUCUCCUUAAUGGGAGCUAGCGGAUGAAGUGAUGCAACACUGGAGCCGCUGGGAACUAAUUUGUAUGCGAAAGUAUAUUGAUUAGUUUUGGAGUACUCGUGGUCG
How it was run: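 The eight P1ex-region nucleotides of an intron in the knt kanamycin-resistance gene on pET-22b(+) were all randomised and the library put into E. coli BL21(DE3). Six replicate transformations were grown overnight at 37°C or 30°C on LB agar with or without 25 μg/mL kanamycin, together with 100 μg/mL carbenicillin, 50 μM IPTG and 0.2% rhamnose. Colonies were pooled and amplicon-sequenced on an Illumina HiSeq 2500. Fitness from DiMSum is the error-weighted combination of wild-type-normalised replicate fold changes, kanamycin over none.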

| Sequence | self-splicing fitness (ln) (30 °C) | self-splicing fitness (ln) (37 °C) |
| --- | --- | --- |
| UUUAAGCAAUAUUACGCUGG | -2.26 ± 0.21 | -0.317 ± 0.18 |
| UUUAAGCAAUAUUACGGACA | -0.552 ± 0.17 | -0.126 ± 0.16 |
| UUUAAGCAAUAUUACGGACU | -1.59 ± 0.14 | -0.921 ± 0.13 |
| UUUAAGCAAUAUUACGGAGG | -2.95 ± 0.22 | -2.18 ± 0.27 |
| UUUAAGCAAUAUUACGGCUC | -1.82 ± 0.17 | -0.633 ± 0.2 |
| UUUAAGCAAUAUUACGGGCG | -0.49 ± 0.13 | 0.635 ± 0.21 |
| UUUAAGCAAUAUUACGUACU | -1.14 ± 0.12 | -0.327 ± 0.14 |
| UUUAAGCAAUAUUACGUAGC |  | -2.34 ± 0.36 |
| UUUAAGCAAUAUUACGUCCG | -1.17 ± 0.22 | 0.606 ± 0.21 |
| UUUCAGCAAUAUUACGAAAG | -3.23 ± 0.24 | -1.87 ± 0.22 |
| UUUCAGCAAUAUUACGAAUU | -1.67 ± 0.081 | -0.87 ± 0.12 |
| UUUCAGCAAUAUUACGACAC | -2.24 ± 0.16 | -2.97 ± 0.22 |
| UUUCAGCAAUAUUACGACCU | -1.28 ± 0.25 | -0.834 ± 0.43 |
| UUUCAGCAAUAUUACGAGGA | -0.995 ± 0.18 | -0.121 ± 0.22 |
| UUUCAGCAAUAUUACGAGUU | -2.96 ± 0.25 | -2.06 ± 0.19 |
| UUUCAGCAAUAUUACGAUAA | 0.592 ± 0.13 | 0.707 ± 0.15 |
| UUUCAGCAAUAUUACGAUCU | -2.25 ± 0.19 | -0.561 ± 0.17 |
| UUUCAGCAAUAUUACGAUUA | 0.327 ± 0.096 | 0.0465 ± 0.088 |
| UUUCAGCAAUAUUACGCAAC | -3.51 ± 0.28 | -1.8 ± 0.22 |
| UUUCAGCAAUAUUACGCACA | -0.372 ± 0.12 | 0.127 ± 0.15 |
| UUUCAGCAAUAUUACGCCGA |  | -0.923 ± 0.44 |
| UUUCAGCAAUAUUACGGAAA | -2.7 ± 0.47 | -2.07 ± 0.22 |
| UUUCAGCAAUAUUACGGAAU | -3.77 ± 0.23 | -2 ± 0.2 |

| Sequence | self-splicing fitness (ln) (30 °C) | self-splicing fitness (ln) (37 °C) |
| --- | --- | --- |
| UUUCAGCAAUAUUACGGGUA | -0.909 ± 0.1 | -0.337 ± 0.12 |
| UUUCAGCAAUAUUACGGUAU | -3.02 ± 0.19 | -1.67 ± 0.15 |
| UUUCAGCAAUAUUACGGUUU | -0.595 ± 0.073 | -0.244 ± 0.092 |
| UUUCAGCAAUAUUACGUCCC | -1.43 ± 0.39 | -0.811 ± 0.4 |
| UUUCAGCAAUAUUACGUCCG | -1.59 ± 0.14 | -1 ± 0.21 |
| UUUCAGCAAUAUUACGUCCU | -2.99 ± 0.42 | -1.32 ± 0.28 |
| UUUCAGCAAUAUUACGUGCA | -0.77 ± 0.13 | 0.0542 ± 0.17 |
| UUUCAGCAAUAUUACGUGCG | -1.27 ± 0.12 | 0.0636 ± 0.11 |
| UUUGAGCAAUAUUACGACGG | -0.966 ± 0.16 | -0.751 ± 0.23 |
| UUUGAGCAAUAUUACGAUAG | -2.09 ± 0.19 | -1.87 ± 0.23 |
| UUUGAGCAAUAUUACGAUGA | -0.96 ± 0.19 | -0.161 ± 0.21 |
| UUUGAGCAAUAUUACGCGCG | -1.85 ± 0.13 | -0.956 ± 0.19 |
| UUUGAGCAAUAUUACGCGUA |  | 0.0632 ± 0.24 |
| UUUGAGCAAUAUUACGCUCA | -3.33 ± 0.41 | -1.6 ± 0.41 |
| UUUGAGCAAUAUUACGCUCG | -3.8 ± 0.4 | -2.01 ± 0.34 |
| UUUGAGCAAUAUUACGCUGC | -3.12 ± 0.47 |  |
| UUUGAGCAAUAUUACGGACA |  | -2.57 ± 0.48 |
| UUUGAGCAAUAUUACGGACG | -2.51 ± 0.24 | -2.71 ± 0.31 |
| UUUGAGCAAUAUUACGGCAA | -1.72 ± 0.18 | -0.742 ± 0.22 |
| UUUGAGCAAUAUUACGGCCA |  | -1.17 ± 0.46 |
| UUUGAGCAAUAUUACGGUAG | -2.82 ± 0.39 | -2.41 ± 0.36 |
| UUUGAGCAAUAUUACGGUGA | -2.07 ± 0.15 | -2.46 ± 0.18 |
| UUUGAGCAAUAUUACGGUUA | -2 ± 0.17 | -1.57 ± 0.15 |

| Sequence | self-splicing fitness (ln) (30 °C) | self-splicing fitness (ln) (37 °C) |
| --- | --- | --- |
| UUUGAGCAAUAUUACGUAAA | -1.16 ± 0.15 | -1.45 ± 0.2 |
| UUUGAGCAAUAUUACGUAAG | -1.29 ± 0.056 | -0.487 ± 0.078 |
| UUUGAGCAAUAUUACGUAGG | -2.52 ± 0.16 | -1.32 ± 0.23 |
| UUUGAGCAAUAUUACGUAUU | -3.89 ± 0.27 | -2.46 ± 0.21 |
| UUUGAGCAAUAUUACGUUUG | -3.29 ± 0.26 | -2 ± 0.31 |
| UUUUAGCAAUAUUACGAAAG | -2.72 ± 0.2 | -0.437 ± 0.15 |
| UUUUAGCAAUAUUACGAGCU | -2.57 ± 0.33 | -2.22 ± 0.31 |
| UUUUAGCAAUAUUACGAUAA | -0.659 ± 0.14 | 0.144 ± 0.15 |
| UUUUAGCAAUAUUACGCAAU | -2.98 ± 0.41 |  |
| UUUUAGCAAUAUUACGCCGU | -2.64 ± 0.32 | -2.8 ± 0.44 |
| UUUUAGCAAUAUUACGCGGA | -2 ± 0.17 | -1.44 ± 0.17 |
| UUUUAGCAAUAUUACGCGGU |  | -1.53 ± 0.45 |
| UUUUAGCAAUAUUACGCUGA | -1.89 ± 0.36 | -2.31 ± 0.39 |
| UUUUAGCAAUAUUACGCUUC |  | -1.81 ± 0.34 |
| UUUUAGCAAUAUUACGGCAU | -2.8 ± 0.41 | -0.972 ± 0.29 |
| UUUUAGCAAUAUUACGGCCG | -0.37 ± 0.24 |  |
| UUUUAGCAAUAUUACGGGAU | -3.93 ± 0.32 | -1.48 ± 0.17 |
| UUUUAGCAAUAUUACGUCAC | -2.38 ± 0.37 |  |
| UUUUAGCAAUAUUACGUCUG | -0.654 ± 0.14 | -0.153 ± 0.16 |
| UUUUAGCAAUAUUACGUGUU | -4.5 ± 0.46 | -3.09 ± 0.24 |
| UUUUAGCAAUAUUACGUUAG | -1.37 ± 0.13 | -2.02 ± 0.21 |
